Test results published in patent publication US20210187091A1 (published 2021).
Substitutions are numbered along the chain they refer to. Read-outs that look alike come from different tables or passages of the source.

B1: DH270.IA1 (antibody, V domains shown)
VH: QVQLVQSGAEVKKPGASVKVSCKASGYTFTDYYIHWVRQAPGQGLEWMGWINPNTGRTNYAQKFQGRVIMTRDTSISTAYMELSRLRSDDTAVYYCARGGWIGLYYDSSGYPNFDYWGQGTLVTVSS
VL: QSALTQPASVSGSPGQSITISCTGTSYDVGSYNLVSWYQQHPGKAPKLMIYEVSKRPSGVSNRFSGSKSGNTASLTISGLQAEDEADYYCCSYAGSSTVIFGGGTKLTVL
B2: DH270.2 (antibody, V domains shown)
VH: QVQLVQSGAEMKKPGASVRVSCKASGYTFTDYYIHWVRQAPGQGPEWMGWINPSTGRTNSPQKFQGRVIMTRDTSISTAYMDLNRLTSDDTAMYYCTTGGWIGLYSDTSGYPNFDYWGQGTLVTVSS
VL: B1 VL with S26N, A45V, L48Y, M49I, S54N, T98I, V99I, I100F, L110I
B3: DH270.4 (antibody, V domains shown)
VH: EVQLVQSGAEMKNPGASVKVSCAASGYGFTDFYIHWVRLAPGHGLQWMGWMNPKTGRTNNAQDFQGRVILTRDTSIGTAYMELRRLTSDDTAVYYCVTGGWISPYYDSSYYPNFDHWGQGTLITVSS
VL: QSALTQPASVSGSPGQSITISCTGTSYDVAKFDLVSWFQQHPGKAPKYMIYEVNKWPSGVSHRFSGSKSGNTASLTISGLQAEDEADYYCCSFGGSATVVCGGGTKVTVL
B4: DH270.5 (antibody, V domains shown)
VH: QVQLVQSGAEVKNPGASVKVSCAPSGYTFTDFYIHWVRLAPGQGLEWLGWMNPKTGRTNQGQNFQGRVIMTRDTSIGTAYMELRSLTSDDTAVYYCVTGAWISDYYDSSYYPNFDHWGQGTLVTVSS
VL: LPVLTQPASVSGSPGQSITISCTGTIYDVGKFDLVSWYQHHPGKAPKYLIYEVKKWPSGVSHRFSGSKSGNTASLTISGLQVEDEADYYCCSFGGSAAVVCGGGTKVTVL
B5: DH270.3 (antibody, V domains shown)
VH: B3 VH with E1Q, G28T, H43Q, Q46E, D63N, L70M, I123V
VL: B3 VL with A30G, F38Y

Legend:
[1] = target: T1, Man9-V3 glycopeptide (Man9GlcNAc2 at N301 and at N332; disulfide bridge between C296 and C331 (cyclized); biotin tag); assay: BLI
T1 peptide: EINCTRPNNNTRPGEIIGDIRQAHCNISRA

[2] = target: T1, Man9-V3 glycopeptide; assay: BLI

Binder | Kd [1] [µM] | Kd [2] [µM]
B1 | 3.29 | 
B2 |  | 4.77
B3 |  | 0.346
B4 |  | 0.281
B5 |  | 0.195
